Results on 14 molecules are retold here after patent US20230381229A1 (ALPINE IMMUNE SCIENCES, INC., published 2023).

The chains are these.
T1: TIGIT (human)
T1 chain: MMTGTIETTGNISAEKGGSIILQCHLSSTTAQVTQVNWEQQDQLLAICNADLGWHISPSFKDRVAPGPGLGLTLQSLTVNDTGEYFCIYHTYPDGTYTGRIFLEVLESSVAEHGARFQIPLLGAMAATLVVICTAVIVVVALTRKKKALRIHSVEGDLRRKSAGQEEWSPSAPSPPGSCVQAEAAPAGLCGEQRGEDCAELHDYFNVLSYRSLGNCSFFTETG

B1: variant CD155 IgV-Fc D8G, P18S, M36I, V38A, H49Q, A76E, F91S, L104M, T107A, R113W (Fc fusion)
chain: WPPPGTGGVVVQAPTQVSGFLGDSVTLPCYLQVPNIEATHVSQLTWARQGESGSMAVFHQTQGPSYSESKRLEFVEARLGAELRNASLRMSGLRVEDEGNYTCMFVAFPQGSWSVDIWLRVLGSGGGGSEPKSSDKTHTCPPCPAPEAEGAPSVFLFPPKPKDTLMISRTPEVTCVVVDVSHEDPEVKFNWYVDGVEVHNAKTKPREEQYNSTYRVVSVLTVLHQDWLNGKEYKCKVSNKALPAPIEKTISKAKGQPREPQVYTLPPSRDELTKNQVSLTCLVKGFYPSDIAVEWESNGQPENNYKTTPPVLDSDGSFFLYSKLTVDKSRWQQGNVFSCSVMHEALHNHYTQKSLSLSPGK
B2: variant CD155 IgV-Fc P18S, S52P, S65A, S67V, L79P, F91S, L104M, T107S, R113W (Fc fusion)
chain: WPPPGTGDVVVQAPTQVSGFLGDSVTLPCYLQVPNMEVTHVSQLTWARHGEPGSMAVFHQTQGPAYVESKRLEFVAARPGAELRNASLRMSGLRVEDEGNYTCMFVSFPQGSWSVDIWLRVLGSGGGGSEPKSSDKTHTCPPCPAPEAEGAPSVFLFPPKPKDTLMISRTPEVTCVVVDVSHEDPEVKFNWYVDGVEVHNAKTKPREEQYNSTYRVVSVLTVLHQDWLNGKEYKCKVSNKALPAPIEKTISKAKGQPREPQVYTLPPSRDELTKNQVSLTCLVKGFYPSDIAVEWESNGQPENNYKTTPPVLDSDGSFFLYSKLTVDKSRWQQGNVFSCSVMHEALHNHYTQKSLSLSPGK
B3: variant CD155 IgV-Fc V9L, P18S, Q60R, V75L, L79P, R89K, F91S, L104E, G111R (Fc fusion)
chain: WPPPGTGDLVVQAPTQVSGFLGDSVTLPCYLQVPNMEVTHVSQLTWARHGESGSMAVFHRTQGPSYSESKRLEFLAARPGAELRNASLKMSGLRVEDEGNYTCEFVTFPQRSRSVDIWLRVLGSGGGGSEPKSSDKTHTCPPCPAPEAEGAPSVFLFPPKPKDTLMISRTPEVTCVVVDVSHEDPEVKFNWYVDGVEVHNAKTKPREEQYNSTYRVVSVLTVLHQDWLNGKEYKCKVSNKALPAPIEKTISKAKGQPREPQVYTLPPSRDELTKNQVSLTCLVKGFYPSDIAVEWESNGQPENNYKTTPPVLDSDGSFFLYSKLTVDKSRWQQGNVFSCSVMHEALHNHYTQKSLSLSPGK
B4: variant CD155 IgV-Fc P18L, K70E, L79P, F91S, V95A, G111R (Fc fusion)
chain: WPPPGTGDVVVQAPTQVLGFLGDSVTLPCYLQVPNMEVTHVSQLTWARHGESGSMAVFHQTQGPSYSESERLEFVAARPGAELRNASLRMSGLRAEDEGNYTCLFVTFPQRSRSVDIWLRVLGSGGGGSEPKSSDKTHTCPPCPAPEAEGAPSVFLFPPKPKDTLMISRTPEVTCVVVDVSHEDPEVKFNWYVDGVEVHNAKTKPREEQYNSTYRVVSVLTVLHQDWLNGKEYKCKVSNKALPAPIEKTISKAKGQPREPQVYTLPPSRDELTKNQVSLTCLVKGFYPSDIAVEWESNGQPENNYKTTPPVLDSDGSFFLYSKLTVDKSRWQQGNVFSCSVMHEALHNHYTQKSLSLSPGK
B5: variant CD155 IgV-Fc P18T, S52P, S65A, S67V, L79P, F91S, L104M, G111R (Fc fusion)
chain: WPPPGTGDVVVQAPTQVTGFLGDSVTLPCYLQVPNMEVTHVSQLTWARHGEPGSMAVFHQTQGPAYVESKRLEFVAARPGAELRNASLRMSGLRVEDEGNYTCMFVTFPQRSRSVDIWLRVLGSGGGGSEPKSSDKTHTCPPCPAPEAEGAPSVFLFPPKPKDTLMISRTPEVTCVVVDVSHEDPEVKFNWYVDGVEVHNAKTKPREEQYNSTYRVVSVLTVLHQDWLNGKEYKCKVSNKALPAPIEKTISKAKGQPREPQVYTLPPSRDELTKNQVSLTCLVKGFYPSDIAVEWESNGQPENNYKTTPPVLDSDGSFFLYSKLTVDKSRWQQGNVFSCSVMHEALHNHYTQKSLSLSPGK
B6: variant CD155 IgV-Fc P18F, S65A, S67V, F91S, L104M, G111R (Fc fusion)
chain: WPPPGTGDVVVQAPTQVFGFLGDSVTLPCYLQVPNMEVTHVSQLTWARHGESGSMAVFHQTQGPAYVESKRLEFVAARLGAELRNASLRMSGLRVEDEGNYTCMFVTFPQRSRSVDIWLRVLGSGGGGSEPKSSDKTHTCPPCPAPEAEGAPSVFLFPPKPKDTLMISRTPEVTCVVVDVSHEDPEVKFNWYVDGVEVHNAKTKPREEQYNSTYRVVSVLTVLHQDWLNGKEYKCKVSNKALPAPIEKTISKAKGQPREPQVYTLPPSRDELTKNQVSLTCLVKGFYPSDIAVEWESNGQPENNYKTTPPVLDSDGSFFLYSKLTVDKSRWQQGNVFSCSVMHEALHNHYTQKSLSLSPGK
B7: variant CD155 IgV-Fc V11A, P18S, L79P, F91S, L104M, G111R (Fc fusion)
chain: WPPPGTGDVVAQAPTQVSGFLGDSVTLPCYLQVPNMEVTHVSQLTWARHGESGSMAVFHQTQGPSYSESKRLEFVAARPGAELRNASLRMSGLRVEDEGNYTCMFVTFPQRSRSVDIWLRVLGSGGGGSEPKSSDKTHTCPPCPAPEAEGAPSVFLFPPKPKDTLMISRTPEVTCVVVDVSHEDPEVKFNWYVDGVEVHNAKTKPREEQYNSTYRVVSVLTVLHQDWLNGKEYKCKVSNKALPAPIEKTISKAKGQPREPQVYTLPPSRDELTKNQVSLTCLVKGFYPSDIAVEWESNGQPENNYKTTPPVLDSDGSFFLYSKLTVDKSRWQQGNVFSCSVMHEALHNHYTQKSLSLSPGK
B8: variant CD155 IgV-Fc V9I, V10I, P18S, F20S, T45A, L79P, F91S, L104M, F108Y, G111R, S112V (Fc fusion)
chain: WPPPGTGDIIVQAPTQVSGSLGDSVTLPCYLQVPNMEVTHVSQLAWARHGESGSMAVFHQTQGPSYSESKRLEFVAARPGAELRNASLRMSGLRVEDEGNYTCMFVTYPQRVRSVDIWLRVLGSGGGGSEPKSSDKTHTCPPCPAPEAEGAPSVFLFPPKPKDTLMISRTPEVTCVVVDVSHEDPEVKFNWYVDGVEVHNAKTKPREEQYNSTYRVVSVLTVLHQDWLNGKEYKCKVSNKALPAPIEKTISKAKGQPREPQVYTLPPSRDELTKNQVSLTCLVKGFYPSDIAVEWESNGQPENNYKTTPPVLDSDGSFFLYSKLTVDKSRWQQGNVFSCSVMHEALHNHYTQKSLSLSPGK
B9: variant CD155 IgV-Fc P18T, M36T, L79P, F91S, G111R (Fc fusion)
chain: WPPPGTGDVVVQAPTQVTGFLGDSVTLPCYLQVPNTEVTHVSQLTWARHGESGSMAVFHQTQGPSYSESKRLEFVAARPGAELRNASLRMSGLRVEDEGNYTCLFVTFPQRSRSVDIWLRVLGSGGGGSEPKSSDKTHTCPPCPAPEAEGAPSVFLFPPKPKDTLMISRTPEVTCVVVDVSHEDPEVKFNWYVDGVEVHNAKTKPREEQYNSTYRVVSVLTVLHQDWLNGKEYKCKVSNKALPAPIEKTISKAKGQPREPQVYTLPPSRDELTKNQVSLTCLVKGFYPSDIAVEWESNGQPENNYKTTPPVLDSDGSFFLYSKLTVDKSRWQQGNVFSCSVMHEALHNHYTQKSLSLSPGK
B10: variant CD155 IgV-Fc T15I, P18T, L79P, F91S, L104M, G111R (Fc fusion)
chain: WPPPGTGDVVVQAPIQVTGFLGDSVTLPCYLQVPNMEVTHVSQLTWARHGESGSMAVFHQTQGPSYSESKRLEFVAARPGAELRNASLRMSGLRVEDEGNYTCMFVTFPQRSRSVDIWLRVLGSGGGGSEPKSSDKTHTCPPCPAPEAEGAPSVFLFPPKPKDTLMISRTPEVTCVVVDVSHEDPEVKFNWYVDGVEVHNAKTKPREEQYNSTYRVVSVLTVLHQDWLNGKEYKCKVSNKALPAPIEKTISKAKGQPREPQVYTLPPSRDELTKNQVSLTCLVKGFYPSDIAVEWESNGQPENNYKTTPPVLDSDGSFFLYSKLTVDKSRWQQGNVFSCSVMHEALHNHYTQKSLSLSPGK
B11: variant CD155 IgV-Fc V11A, P18S, S54R, Q60P, Q62K, L79P, N85D, F91S, T107M (Fc fusion)
chain: WPPPGTGDVVAQAPTQVSGFLGDSVTLPCYLQVPNMEVTHVSQLTWARHGESGRMAVFHPTKGPSYSESKRLEFVAARPGAELRDASLRMSGLRVEDEGNYTCLFVMFPQGSRSVDIWLRVLGSGGGGSEPKSSDKTHTCPPCPAPEAEGAPSVFLFPPKPKDTLMISRTPEVTCVVVDVSHEDPEVKFNWYVDGVEVHNAKTKPREEQYNSTYRVVSVLTVLHQDWLNGKEYKCKVSNKALPAPIEKTISKAKGQPREPQVYTLPPSRDELTKNQVSLTCLVKGFYPSDIAVEWESNGQPENNYKTTPPVLDSDGSFFLYSKLTVDKSRWQQGNVFSCSVMHEALHNHYTQKSLSLSPGK
B12: variant CD155 IgV-Fc P18T, E37G, G53R, Q62K, L79P, F91S, E98D, L104M, T107M (Fc fusion)
chain: WPPPGTGDVVVQAPTQVTGFLGDSVTLPCYLQVPNMGVTHVSQLTWARHGESRSMAVFHQTKGPSYSESKRLEFVAARPGAELRNASLRMSGLRVEDDGNYTCMFVMFPQGSRSVDIWLRVLGSGGGGSEPKSSDKTHTCPPCPAPEAEGAPSVFLFPPKPKDTLMISRTPEVTCVVVDVSHEDPEVKFNWYVDGVEVHNAKTKPREEQYNSTYRVVSVLTVLHQDWLNGKEYKCKVSNKALPAPIEKTISKAKGQPREPQVYTLPPSRDELTKNQVSLTCLVKGFYPSDIAVEWESNGQPENNYKTTPPVLDSDGSFFLYSKLTVDKSRWQQGNVFSCSVMHEALHNHYTQKSLSLSPGK
B13: variant CD155 IgV-Fc V9I, Q12K, P18F, S65A, S67V, L79P, L104T, G111R, S112I (Fc fusion)
chain: WPPPGTGDIVVKAPTQVFGFLGDSVTLPCYLQVPNMEVTHVSQLTWARHGESGSMAVFHQTQGPAYVESKRLEFVAARPGAELRNASLRMFGLRVEDEGNYTCTFVTFPQRIRSVDIWLRVLGSGGGGSEPKSSDKTHTCPPCPAPEAEGAPSVFLFPPKPKDTLMISRTPEVTCVVVDVSHEDPEVKFNWYVDGVEVHNAKTKPREEQYNSTYRVVSVLTVLHQDWLNGKEYKCKVSNKALPAPIEKTISKAKGQPREPQVYTLPPSRDELTKNQVSLTCLVKGFYPSDIAVEWESNGQPENNYKTTPPVLDSDGSFFLYSKLTVDKSRWQQGNVFSCSVMHEALHNHYTQKSLSLSPGK
B14: variant CD155 IgV-Fc P18F, T26M, L44V, Q62K, L79P, E82D, F91S, L104M, G111D (Fc fusion)
chain: WPPPGTGDVVVQAPTQVFGFLGDSVMLPCYLQVPNMEVTHVSQVTWARHGESGSMAVFHQTKGPSYSESKRLEFVAARPGADLRNASLRMSGLRVEDEGNYTCMFVTFPQDSRSVDIWLRVLGSGGGGSEPKSSDKTHTCPPCPAPEAEGAPSVFLFPPKPKDTLMISRTPEVTCVVVDVSHEDPEVKFNWYVDGVEVHNAKTKPREEQYNSTYRVVSVLTVLHQDWLNGKEYKCKVSNKALPAPIEKTISKAKGQPREPQVYTLPPSRDELTKNQVSLTCLVKGFYPSDIAVEWESNGQPENNYKTTPPVLDSDGSFFLYSKLTVDKSRWQQGNVFSCSVMHEALHNHYTQKSLSLSPGK

This experiment addresses T1, TIGIT. Briefly: cell-based or functional assay.
Consider B1, for which the “IL-2 luciferase reporter, Normalized Fold Change from CD155-ECD, proteins at 50 nM” value came to 4 fold.
In the case of B2, the “IL-2 luciferase reporter, Normalized Fold Change from CD155-ECD, proteins at 50 nM” value was -0.1 fold.
As for B3, the figure is 1.8 fold; as for B4, 2.4 fold; as for B5, 3.6 fold.
Regarding B6, the “IL-2 luciferase reporter, Normalized Fold Change from CD155-ECD, proteins at 50 nM” value came to 0.6 fold.
In the case of B7 it was 0.4 fold.
As for B8, the figure is -1.9 fold; as for B9, 4.1 fold.
In the case of B10, the “IL-2 luciferase reporter, Normalized Fold Change from CD155-ECD, proteins at 50 nM” value is 0.4 fold.
Consider B11, for which the “IL-2 luciferase reporter, Normalized Fold Change from CD155-ECD, proteins at 50 nM” value was determined as 2.6 fold.
As for B12, the figure is 8.6 fold.
As for B13, the figure is 2.3 fold.
As for B14, the figure is 4 fold.
